Assay [1] has as its target T1, full-length human FGFR1c on HEK293/hFGFR1c/SRE-luc cells (human, UniProt P11362 22-822).
T1 construct: amino acids 1-733 of NP_075593
The experiment in a line: FACS on stable HEK293 cells, 965 nM. The procedure:
(§1) For the FACS analysis, HEK293 parental, HEK293/hFGFR1c, HEK293/hFGFR1c/hKLB, and HEK293/mFGFR1c/mKLB cells were dissociated and plated onto 96-well v-bottom plates at 0.5×10⁶ cells/well in 2% FBS/PBS. […] Control mAb2 was tested at a concentration of 965 nM. After primary protein incubation cells were washed and incubated with 3.75 μg/mL fluorescently conjugated secondary antibodies for 30 minutes at 4° C. Cells were filtered and analyzed on Accuri™ 6 Flow Cytometer. Unstained and secondary antibody alone controls were also tested for all cell lines. The results were analyzed using FlowJo version 9.52 software and geometric mean (Geom. Mean) of fluorescence for viable cells were determined. Geom. mean of fluorescence for each antibody was then normalized to Geom. mean of unstained cells to obtain relative binding of antibody (binding ratios) per each cell type.

In assay [2] the target is T2, human KLB and human FGFR1c co-expressed on HEK293/hKLB/hFGFR1c/SRE-luc cells (human, UniProt Q86Z14 1-1044; P11362 22-822).
T2 construct: two receptors co-expressed on one cell line; also called KLB/FGFR1c coreceptor; FGF21R
As to the kind of experiment: FACS on stable HEK293 cells, 965 nM. The procedure:
as §1

T1 sequence (P11362 other isoform, or with tags, fused parts or gaps limits assumed): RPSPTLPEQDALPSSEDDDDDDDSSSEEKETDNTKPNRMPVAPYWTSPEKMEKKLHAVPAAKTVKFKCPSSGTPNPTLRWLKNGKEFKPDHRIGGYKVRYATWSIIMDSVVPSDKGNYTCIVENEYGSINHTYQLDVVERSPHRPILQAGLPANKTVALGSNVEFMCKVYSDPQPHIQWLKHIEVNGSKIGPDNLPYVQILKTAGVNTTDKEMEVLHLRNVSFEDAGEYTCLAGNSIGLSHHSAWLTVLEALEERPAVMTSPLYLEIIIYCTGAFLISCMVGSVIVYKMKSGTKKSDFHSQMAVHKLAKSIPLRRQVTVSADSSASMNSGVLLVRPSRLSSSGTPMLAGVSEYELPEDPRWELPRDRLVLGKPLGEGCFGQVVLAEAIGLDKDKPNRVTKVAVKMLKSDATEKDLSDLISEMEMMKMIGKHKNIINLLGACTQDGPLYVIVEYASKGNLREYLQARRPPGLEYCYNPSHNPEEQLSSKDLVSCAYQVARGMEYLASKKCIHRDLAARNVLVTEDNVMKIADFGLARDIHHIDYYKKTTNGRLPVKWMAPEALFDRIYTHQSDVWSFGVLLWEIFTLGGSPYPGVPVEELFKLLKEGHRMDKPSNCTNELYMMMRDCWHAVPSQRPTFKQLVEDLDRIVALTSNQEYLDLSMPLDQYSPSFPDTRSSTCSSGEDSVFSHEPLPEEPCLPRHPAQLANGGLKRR
T2 sequence (Q86Z14 whole entry, chain 1 of 2): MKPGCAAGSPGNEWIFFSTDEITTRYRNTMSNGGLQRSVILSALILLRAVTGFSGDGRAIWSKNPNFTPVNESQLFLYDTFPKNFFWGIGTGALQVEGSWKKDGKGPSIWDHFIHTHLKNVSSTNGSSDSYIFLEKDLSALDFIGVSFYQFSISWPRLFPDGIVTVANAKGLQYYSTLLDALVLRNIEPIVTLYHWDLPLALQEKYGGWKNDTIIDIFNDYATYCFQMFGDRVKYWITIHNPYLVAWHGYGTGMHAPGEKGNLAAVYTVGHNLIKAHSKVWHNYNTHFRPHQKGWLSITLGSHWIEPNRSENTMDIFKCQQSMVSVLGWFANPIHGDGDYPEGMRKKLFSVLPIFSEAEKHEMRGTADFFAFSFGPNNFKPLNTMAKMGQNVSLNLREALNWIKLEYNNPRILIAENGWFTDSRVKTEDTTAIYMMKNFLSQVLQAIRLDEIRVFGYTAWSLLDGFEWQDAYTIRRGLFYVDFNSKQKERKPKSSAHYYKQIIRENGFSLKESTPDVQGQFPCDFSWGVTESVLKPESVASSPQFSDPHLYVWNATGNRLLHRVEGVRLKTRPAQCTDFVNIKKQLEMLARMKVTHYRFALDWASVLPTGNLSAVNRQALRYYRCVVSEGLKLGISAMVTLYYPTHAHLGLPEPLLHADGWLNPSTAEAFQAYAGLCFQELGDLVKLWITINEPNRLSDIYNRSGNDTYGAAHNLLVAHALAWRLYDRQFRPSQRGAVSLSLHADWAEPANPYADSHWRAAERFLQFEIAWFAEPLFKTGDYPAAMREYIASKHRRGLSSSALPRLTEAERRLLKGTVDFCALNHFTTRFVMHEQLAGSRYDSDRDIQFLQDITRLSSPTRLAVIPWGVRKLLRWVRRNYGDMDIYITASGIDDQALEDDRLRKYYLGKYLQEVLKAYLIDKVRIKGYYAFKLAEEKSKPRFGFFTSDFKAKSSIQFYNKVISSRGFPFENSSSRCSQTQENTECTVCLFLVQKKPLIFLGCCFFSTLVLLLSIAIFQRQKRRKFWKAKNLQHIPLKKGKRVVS
T2 sequence (P11362 other isoform, or with tags, fused parts or gaps limits assumed, chain 2 of 2): as the sequence (P11362 other isoform, or with tags, fused parts or gaps limits assumed) above

B1: H1H8900P (antibody, V domains shown)
VH: QVQLVESGGGVVQPGRSLRLSCVASGFTFSSYGMHWVRQAPGKGLEWVAVISFDGSNKYYADSVKGRFTISRDNSKNTLYLQMNSLRPADTAVYYCAKDRSNYYYFGMDVWGQGTTVTVSS
VL: DIVMTQTPLSLPVTPGEPASISCRSSQSLLDSDDGNTYLDWYLQKPGQSPQLLIYTLSYRASGVPDRFSGSGSGTDFTLKISRVEAEDVGVYYCMQRIEFPLTFGGGTKVEIK
notes: H1H Fc prefix (human Fc)
Take B1: the “MFI Ratio to unstained cells” value in assay [1] and in assay [2] was 5 fold throughout.

For the origin of these results see patent US20170174769A1 (Regeneron, published 2017).
